For the experiment, the target named is His-BACH1-BTB (amino acids 7-128) (human) (UniProt O14867). Nature of the experiment: SEC-MALS.
Sequence of His-BACH1-BTB (amino acids 7-128) (human) (O14867 7-128): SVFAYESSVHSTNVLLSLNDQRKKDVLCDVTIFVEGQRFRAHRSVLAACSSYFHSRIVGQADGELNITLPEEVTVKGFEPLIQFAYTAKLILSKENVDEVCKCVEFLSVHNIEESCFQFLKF

Sequence of Tag-free FBXO22-SKP1 complex (Q8NEZ5 whole entry): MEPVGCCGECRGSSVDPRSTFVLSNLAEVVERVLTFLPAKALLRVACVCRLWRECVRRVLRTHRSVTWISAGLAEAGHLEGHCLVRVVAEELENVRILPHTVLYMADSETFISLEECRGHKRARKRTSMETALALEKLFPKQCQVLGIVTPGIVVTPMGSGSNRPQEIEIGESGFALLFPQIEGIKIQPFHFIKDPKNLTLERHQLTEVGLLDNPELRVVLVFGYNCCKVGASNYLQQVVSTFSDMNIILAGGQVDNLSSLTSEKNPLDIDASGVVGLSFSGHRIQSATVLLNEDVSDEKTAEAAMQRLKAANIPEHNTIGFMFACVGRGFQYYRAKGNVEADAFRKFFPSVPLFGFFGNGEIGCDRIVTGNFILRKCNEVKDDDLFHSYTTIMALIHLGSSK
Sequence of Tag-free FBXO22-SKP1 complex (P63208 whole entry): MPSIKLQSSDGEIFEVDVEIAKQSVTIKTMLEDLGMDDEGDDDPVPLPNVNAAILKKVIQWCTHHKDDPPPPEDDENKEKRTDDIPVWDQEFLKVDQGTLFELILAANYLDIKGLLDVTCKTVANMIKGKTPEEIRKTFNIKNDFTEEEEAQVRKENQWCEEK

Substance “Tag-free FBXO22-SKP1 complex (from UniProt Q8NEZ5 1-403; P63208 1-163)” came in with a stoichiometry N (FBXO22-SKP1 per BACH1 BTB dimer) of 1.

Values taken from publication PMC11682927.
